# Measured values: patent publication US20230123187A1
# Target: Apolipoprotein E receptor-2 (Apoer2) (human) (UniProt Q14114)
# Assay: cell-based or functional assay
# Sequence of UniProt Q14114 (Q14114 33-963): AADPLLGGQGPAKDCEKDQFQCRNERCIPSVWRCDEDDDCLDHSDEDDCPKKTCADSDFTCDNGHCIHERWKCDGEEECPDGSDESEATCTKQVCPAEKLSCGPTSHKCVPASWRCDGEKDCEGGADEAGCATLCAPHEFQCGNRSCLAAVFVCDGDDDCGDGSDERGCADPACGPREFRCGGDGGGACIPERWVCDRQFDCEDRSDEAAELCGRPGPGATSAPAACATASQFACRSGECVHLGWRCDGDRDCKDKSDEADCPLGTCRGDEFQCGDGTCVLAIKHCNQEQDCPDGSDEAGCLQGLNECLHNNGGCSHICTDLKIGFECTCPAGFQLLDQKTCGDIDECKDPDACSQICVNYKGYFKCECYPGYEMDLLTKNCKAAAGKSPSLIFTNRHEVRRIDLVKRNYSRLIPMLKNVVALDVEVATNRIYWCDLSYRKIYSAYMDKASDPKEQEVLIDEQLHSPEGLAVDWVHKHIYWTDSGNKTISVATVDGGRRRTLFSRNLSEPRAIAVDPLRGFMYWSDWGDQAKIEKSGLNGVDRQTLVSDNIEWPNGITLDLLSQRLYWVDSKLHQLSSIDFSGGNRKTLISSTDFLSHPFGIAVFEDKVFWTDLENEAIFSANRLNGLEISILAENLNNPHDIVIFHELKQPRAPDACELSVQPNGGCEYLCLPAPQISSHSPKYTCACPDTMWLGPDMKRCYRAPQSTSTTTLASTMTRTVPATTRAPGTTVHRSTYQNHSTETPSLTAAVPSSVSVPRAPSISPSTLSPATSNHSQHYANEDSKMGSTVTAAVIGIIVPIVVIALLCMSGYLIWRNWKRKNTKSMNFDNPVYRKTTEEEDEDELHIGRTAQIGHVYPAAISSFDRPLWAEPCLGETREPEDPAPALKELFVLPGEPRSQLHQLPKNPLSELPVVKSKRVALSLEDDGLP
substance,measurement,value
Recombinant Reelin (ligand),U937 monocyte adhesion to HAEC monolayers,> 2 fold
